assay: soluble fraction after stress (log2 fold change); higher = more stays soluble; pooled small domains, quantitative proteomics; settings: stress: pH 4
Procedure, shortened: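 Pooled custom libraries of small protein domains were subjected to pH 4 and measured by high-throughput quantitative proteomics. The log2 fold change in soluble amount per domain is reported, higher values meaning more remained soluble. This is used as a measure of aggregation propensity.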

| Sequence | soluble fraction (log2) |
| --- | --- |
| HMKQISNTDELETMVKKIIDDNEEQVNKYRGGNEKLFGWFVGQAMKNTGGTANPKVVNEILSKLLK | ≥ 0.43 |
| HMKQLLHLVIGGELKDVRGIEFEDLSKIDFVGAFPSYKAAYDAWKNAAQRTVDNAEMRYFILHAHR | -1.37 |
| HMKQLRVLGIVKAGSILKNSDGSIEFVIEDSGKSLLVKYKGVIPDIFKDGVEAVVEGDLRGSVFNADKLF | -0.2 |
| HMKQMNETQQKAFEIYLDSATFETDYKPISEEQLAAKLDALGLKGSSSSINRWKKDFNWAQALQNKVTLAM | -0.227 |
| HMKQQNFADLAGRFVFNADNEVVFNFGKHKNVPVATVLKNEPGYYGWMMGGDFPLFTKKILKQIKEA | -0.952 |
| HMKQTFGAMLAALRKEKGMTQLELAEQMGVTDKAVSKWERDLSFPDVTSLPRLAEILEVSVDELMQ | -0.724 |
| HMKQVNVVSVIGQSEANAKTTLTGLGLKVNVAYEEDTSKADGIVLKQSLEGGKTVNEGTTITITVNKIA | -0.567 |
| HMKQVSDTGAIDAAIREVMDANPDKVAEYRSGKDKLFGFFVGQIMRAMAGKAAPVVVNDRLKALLD | 0.32 |
| HMKQVTVGGTINAGGARIYADSYGNGGGRQTFGSDPIYTVLQERNGYILTRWHKLSSGYTGWFKKSDVSA | -0.00968 |
| HMKQYSFEISKADFKKISENFNFKIINEINDSLIISLNDKNINLDELLIFFVERKIKVRSIENI | -1.06 |
| HMKREELTQQTKQNLREAFWSLYIQKPIEKITVKEITDIAGYNRGTFYLYYKDTYDLLAKIE | -0.646 |
| HMKRLLLPGDLAGVRRHLLDRENSFHILRVLRLARGSTIEAMDDAGNRFSATLAGVKAGRALFDLAAKI | -0.245 |
| HMKRLPAQMGGGDGVLRVPGLNNFVYVTIADKTLPAFNNRVPPKKGLRIWVGYSPEEPNLFQVLSTRTD | 0.0233 |
| HMKRLPMRKIRDVLRLSADGLSTRKIGVSLTIGRTTVQAYLDRAAEVDLSWPLPPEMSDTDLERLIYPR | -0.119 |
| HMKRNLVSVLDHIVGIGPKRRQSLRTHFGSLEKIKEASVEELAAAPGMNRTSAEAVRHFFDAQQELRGK | 0.207 |
| HMKRRSVIVSVVRAQVRQSADEAAAVVFEAEKNVSLDYLETMPGGWVKVRHRDGQTGFVRVNQIWG | -0.79 |
| HMKRSFGYIRLLPSKRYQASYIGPDSQRHAAPETFTRKMDAEGWLSAERRLIEWDQWTSPEQRAAQARLD | 0.127 |
| HMKRTRLEEAMDWLREQLNDGPVAYATLKDEAPKAEITLSTLRAAGEALRVDKQKKGVQWGGWTWSLPR | 0.404 |
| HMKRVTRQRTEILRVIDESERPLGPQEILQAGREAIPSLSIATIYRTLRDLLAEELIKTVALPGDSPRYES | -0.0601 |
| HMKSARDDILSALDKAGEPLSMKDIAELSGRKLSTLRAQMTRLVAEGAVQATAAAHSPDRKYRK | -0.133 |
| HMKSARQIAILEIIAEKSIETQEDLADALRLRGFQVTQATVSRDIKELRLVKALAPDGTYRYATAEK | 0.264 |
| HMKSEIRKKNSQIILDAAEHEFSVHGYRGTSVQMIADRSGLPKANLHYYYKSKSALYGAVLDRIL | 0.109 |
| HMKSERHALILSLIEKKNVETQEDLAELLKERGVAVTQATVSRDIKELRLIKVLSETGGYKYATVDKAE | 0.109 |
| HMKSIETVAELVAELKKLNPNAKISNIDGTYTLEEDINTITLPKDFKYDNNLGINNKIDDFTPYISLDVKA | -0.132 |
| HMKSIRIPFILTEGPNSQKITIDIDSDEEFRIGDVFDEDDKLWSINQILISGDRKAKMAIASEVTSISALR | -0.797 |
| HMKSKYLIKIEGDFDEKDLYKYLINVSIVNHTKNNGFTEVEFYNDNYSLQQNFLKSMLNDGIIITEFKKVE | -0.558 |
| HMKSLHSEVTDRIRQLIVESHLQPGQRVPELEISRDLGVSRTPIREALKVLAAEGLVELLPLRGAMVK | -0.104 |
| HMKSLLTARQLEVFEIARNKGYWTTPRKISLVELSKLLDISKSTLSVLLHSIEGKVMEEFYEEIRQ | 0.0209 |
| HMKSNIIPLSLKKPQRLDIFLTNYFVDLSRTQIKKMITDGNIKVNDLIAKPSLKLIGDEIIFYTLPK | -0.698 |
| HMKSNNPLDHVRVKQRGASWAYYFEKAKVDGKRRRGEGGGYATEQDARMAGVEAYNAYIGGGAK | 0.109 |

Source: the domain aggregation screens of Martell et al. (2025)
